Measured values reported in patent US20070098693A1, “Methods for enhancing engraftment of purified hematopoietic stem cells in allogenic recipients” (priority 2003, published 2007).

Experiments:
Format in all cases: cell-based, mice
CD8^+/TCR^− FC [1] = assay: Activation marker expression on sorted FC after 18 h culture (FACS); conditions: FC from 10 day FL-cultured BMC, overnight culture, medium
Excerpt: (§1) mAbs and Flow cytometry. The following mAbs (all from BD Biosciences Pharmingen, San Diego, Calif., except those labeled with APC-cy-7 from eBioscience, San Diego, Calif.) were used. To sort CD8^+/TCR^− FC: anti-CD8α (53-6.7) PE-labeled, anti-TCR β chain (H57-597) and anti-TCR γδ chain (GL3) FITC-labeled. To sort B220^+/CD11c^dim/CD11b^− p-preDC: anti-CD11b (M1/70) APC-labeled, anti-CD45R/B220 (RA3-6B2) APC-Cy7-labeled, anti-CD11c (HL3) PE-labeled, and anti-TCR β chain (H57-597), anti-TCR γδ chain (GL3), anti-CD14 (rmC5-3), anti-CD19 (1D3), anti-Pan-NK cells (DX5), and anti-NK1.1 (PK136), all FITC-labeled. To sort HSC: anti-TCR β chain (H57-597), anti-TCR γδ chain (GL3), anti-Ly-6G (Gr-1), anti-CD11b, Mac1 (M1/70), anti-CD8α (53-6.7) and anti-CD45R/B220 (RA3-6B2), all FITC-labeled, anti-Ly-6A/E (Sca-1) (E13-161.7) PE-labeled and anti-c-Kit (CD117) (2B8) APC-labeled. To restain the sorted FC population: purified anti-CD16/CD32 (FcγIII/II receptors) (2.4G2), anti-CD11c (HL3), anti-CD4 (RM4-5) and anti-CD19 (1D3) all APC-labeled, anti-CD45R/B220 (RA3-6B2) PerCP-labeled, and anti-Pan-NK cells (DX5), anti-NK1.1 (PK136), anti-CD14 (rmC5-3), and anti-Ly-6G (Gr-1) FITC-labeled. To analyze the activation state: anti-CD80 (B7-1) ([…]), anti-CD86 (B7-2) ([…]), and anti-I-A^b (Aβ^b) (AF6-120.1) FITC-labeled. For PBL typing and multilineage chimerism: anti-H-2 K^b (AF6-88.5) PE or FITC-labeled, anti-H-2K^k (36-7-5) PE or FITC-labeled, anti-TCR β chain (H57-597), anti-NK1.1 (PK136), anti-Ly-6G (Gr-1), anti-CD11b, Mac1 (M1/70) and anti-CD45R/B220 (RA3-6B2) all FITC-labeled. Detection of dead cells after cell culture was determined by using a 7-Amino-actinomycin D (7-AAD) (Molecular Probes, Eugene, Oreg.) followed by FACS analysis.
(§2) CpG oligodeoxynucleotides (ODN) stimulation. Sorted p-preDC or FC were cultured for 18 hours at 10^5 cells/200 μL in 96 well round-bottom culture plates in culture medium in the presence or absence of Toll-like receptor (TLR)-9 ligand, CPG-ODN 1668 (TCCATGACGTTCCGATGCT) (SEQ ID NO. 1) (GibcoBRL Custom Primers) at 1 μM, TLR-4 ligand, LPS from Escherichia coli (Sigma, MO, USA) at 10 μg/ml, as previously described^30. CpG or LPS-treated or untreated cells were subsequently assayed for: 1) the expression of DC activation/maturation cell surface markers by FACS, 2) their survival rate by 7AAD staining, or 3) morphological appearance by Wright Giemsa staining on cytospins. The supernatant of these cultures were collected for analysis of the production of different cytokines by ELISA.

CD8^+/TCR^− FC [2] = assay: Cell death of sorted FC after overnight culture (7AAD staining); conditions: FC from 10 day FL-cultured BM, medium, n=3; versus 53.6% fresh cells
Excerpt: as §1, §2

[3] = system: B220^+/CD11c^dim/CD11b^− p-preDC; assay: Cell death of sorted p-preDC after overnight culture (7AAD staining); conditions: versus fresh cells (data not shown)
Excerpt: as §1
CpG oligodeoxynucleotides (ODN) stimulation. […]

FC from cultured BM = assay: Culture of BMC with FL for 10 days, expansion of FC; conditions: 10 days in culture with FL, n=8
Experimental: (§3) Culture of BMC with FL. BMC were resuspended at 10^6 cells/ml in culture medium consisting of RPMI 1640 (Gibco), 10% FBS (Gibco), 1 mM Sodium pyruvate (Gibco), 10 mM Hepes (Gibco), 2 mM L-Glutamine (Gibco), Penicillin 100 U/mL, 100 μg/mL Streptomycin, (Gibco), and 10^−5 M 2-mercaptoethanol (Sigma), supplemented with human FL (100 ng/ml, generous gift from Amgen, Seattle, Wash.). Every 5 days of culture, half of the medium was replaced by fresh cytokine-supplemented culture medium according to a protocol previously described^30.
Cell sorting. HSC, FC, and p-preDC were sorted as previously described^9,30,49. HSC were sorted for Sca-1^+c-Kit^+Lin^− expression, FC were sorted for CD8α^+/TCRαβ^−/TCRγδ^− expression, and p-preDC were sorted for CD11c^dim/CD11b^−/B220^+ expression. Briefly, BMC were incubated with Abs on ice for 30 minutes, cells were washed twice in the CSM, filtered, and resuspended to a final concentration of 2.5×10^6 cells/mL in the CSM for cell sorting. The isolation of the cell populations was performed on FACSVantage Flow Cytometers (Becton Dickinson). The populations of interest were isolated from the live lymphoid gate, and after reanalysis, only cells with a purity of >94% were used.

FL-derived p-preDC = assay: Cytokine production by sorted FL-derived p-preDC (ELISA); conditions: p-preDC from FL bone marrow culture, overnight culture
Experimental: as §3
as §2, with “The supernatant of these cultures were collected for analysis of the production of different cytokines by ELISA.” left out
Cytokine production by ELISA. […] The amount of cytokine produced was determined by 1) ELISA kits for mouse IFN-α (R&D system) and mouse TNF-α (Biosource International), and 2). […]

B1: FL: Recombinant human Flt-3 Ligand (FL, kindly provided by Amgen, Seattle, Wash.) (protein, UniProt P49771 27-235, looked up)
Fms-related tyrosine kinase 3 …: TQDCSFQHSPISSDFAVKIRELSDYLLQDYPVTVASNLQDEELCGGLWRLVLAQRWMERLKTVAGSKMQGLLERVNTEIHFVTKCAFQPPPSCLRFVQTNISRLLQETSEQLVALKPWITRQNFSRCLELQCQPDSSTLPPPWSPRPLEATAPTAPQPPLLLLLLLPVGLLLLAAAWCLHWQRTRRRTPRPGEQVPPVPSPQDLLLVEH
CD80 expression on FL-derived FC (CD8^+/TCR^− FC [1]; versus 11% of fresh FC): 47%
CD86 expression on FL-derived FC (CD8^+/TCR^− FC [1]; versus 17% of fresh FC): 51%
Class II expression on FL-derived FC (CD8^+/TCR^− FC [1]; versus 18% of fresh FC): 40%
death of FL-derived FC after overnight culture (CD8^+/TCR^− FC [2]): 71%
death of FL-derived p-preDC after overnight culture [3]: more sensitive to death
increase in FL-derived FC from cultured BM (FC from cultured BM): 7 fold
IFN-α production by FL-derived p-preDC (FL-derived p-preDC): also produced IFN-α
